Data on one molecule can be found in patent publication US20180073000A1.

Positions count from the first letter of the chain named.

The target of experiment [1] is T1, E8-N13 modified GALNS (Homo sapiens).
T1 sequence: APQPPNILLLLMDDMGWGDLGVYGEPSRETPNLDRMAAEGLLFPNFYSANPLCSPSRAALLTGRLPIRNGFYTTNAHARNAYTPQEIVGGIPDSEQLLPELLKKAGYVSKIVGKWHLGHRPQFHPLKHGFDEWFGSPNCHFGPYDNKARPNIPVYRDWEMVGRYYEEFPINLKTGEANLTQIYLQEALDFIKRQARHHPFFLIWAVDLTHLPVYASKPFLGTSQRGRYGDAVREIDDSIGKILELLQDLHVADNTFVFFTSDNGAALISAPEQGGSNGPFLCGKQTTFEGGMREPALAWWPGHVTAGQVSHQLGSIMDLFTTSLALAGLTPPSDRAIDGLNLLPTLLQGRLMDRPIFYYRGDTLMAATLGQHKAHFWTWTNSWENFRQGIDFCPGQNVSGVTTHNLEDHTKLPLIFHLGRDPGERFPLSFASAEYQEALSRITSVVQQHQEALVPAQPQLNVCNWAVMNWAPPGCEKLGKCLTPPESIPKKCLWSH

Experiment [2] concerns the target T2, C4-N6 modified GALNS (Homo sapiens).
T2 sequence: T1 sequence with A148I, P150G, N151Q, I203Y, L208A, L211A

In experiment [3] the target is T3, GALNS-201 (C4-N6 + I10-N14) (Homo sapiens).
T3 sequence: T1 sequence with A148I, P150G, N151Q, I203Y, L208A, L211A, P455G, A456I, P458G

The target in experiment [4] is T4, GALNS-231 (C4-N6 + E8-N14 + I10-N14) (Homo sapiens).
T4 sequence: T1 sequence with A148I, P150G, N151Q, L211I, P455G, A456I, P458G

The target in experiment [5] is T5, GALNS-242 (C4-N7 + E8-N11) (Homo sapiens).
T5 sequence: T1 sequence with A148L, P150G, N151Q, A205L, L208A

Experiment [6] addresses T6, Wild type N-acetylgalactosamine-6-sulfate sulfatase (GALNS) (Homo sapiens).
T6 sequence: T1 sequence with I203Y, L208A, L211A

Experiment [7] deals with T7, I10-N14 modified GALNS (Homo sapiens).
T7 sequence: T1 sequence with I203Y, L208A, L211A, P455G, A456I, P458G

Experiment [8] has as its target T8, GALNS-315 (E8-N14 + I10-N14) (Homo sapiens).
T8 sequence: T1 sequence with L211I, P455G, A456I, P458G

B1: Sulfatase-modifying factor 1 (SUMF1) (enzyme)
chain: SQEAGTGAGAGSLAGSCGCGTPQRPGAHGSSAAAHRYSREANAPGPVPGERQLAHSKMVPIPAGVFTMGTDDPQIKQDGEAPARRVTIDAFYMDAYEVSNTEFEKFVNSTGYLTEAEKFGDSFVFEGMLSEQVKTNIQQAVAAAPWWLPVKGANWRHPEGPDSTILHRPDHPVLHVSWNDAVAYCTWAGKRLPTEAEWEYSCRGGLHNRLFPWGNKLQPKGQHYANIWQGEFPVTNTGEDGFQGTAPVDAFPPNGYGLYNIVGNAWEWTSDWWTVHHSVEETLNPKGPPSGKDRVKKGGSYMCHRSYCYRYRCAARSQNTPDSSASNLGFRCAADRLPTMD
Consider B1, for which the GALNS enzyme activity in the pellet of COS-7 cells co-transfected with SUMF1, percentage of GALNS without SUMF1 (percent of GALNS (without SUMF1)) in experiment [1] came to 567; in experiment [2], 443; in experiment [3], 545; in experiment [4], 628; in experiment [5], 434; in experiment [6] it was 1930. Also, the GALNS enzyme activity in the pellet of COS-7 cells co-transfected with SUMF1, percentage of GALNS without SUMF1 (percent of GALNS (without SUMF1)) came to 568 in experiment [7] and 563 in experiment [8].
